Data: ChEMBL document CHEMBL1139388, “Crystal structure of the Homo sapiens kynureninase-3-hydroxyhippuric acid inhibitor complex: insights into the molecular basis of kynureninase substrate specificity” (J Med Chem, 2009)
Positions count from the first letter of the chain named. Numbers in names are those of the source.

Legend:
Details in all cases: Homo sapiens
[1] = substrate: Nc1ccccc1C(=O)C[C@H](N)C(=O)O
Description: (§1) Activity of human wild type kynureninase

[2] = substrate: Nc1c(O)cccc1C(=O)CC(N)C(=O)O
Description: as §1

[3] = substrate: Nc1ccccc1C(=O)C[C@H](N)C(=O)O; remark: listed apart in the source
Description: (§2) Ratio of kcat to Km for human wild type kynureninase

[4] = substrate: Nc1c(O)cccc1C(=O)CC(N)C(=O)O; remark: listed apart in the source
Description: as §2

[5] = substrate: Nc1ccccc1C(=O)C[C@H](N)C(=O)O; remark: listed apart in the source
Description: (§3) Ratio of kcat to Km for human kynureninase H102W/N333T mutant

[6] = substrate: Nc1c(O)cccc1C(=O)CC(N)C(=O)O; remark: listed apart in the source
Description: as §3

[7] = substrate: Nc1ccccc1C(=O)C[C@H](N)C(=O)O; remark: listed apart in the source
Description: Activity of human kynureninase H102W/N333T mutant

[8] = substrate: Nc1ccccc1C(=O)C[C@H](N)C(=O)O; remark: listed apart in the source
Description: (§4) Ratio of kcat to Km for human kynureninase H102W/S332G/N333T mutant

[9] = substrate: Nc1c(O)cccc1C(=O)CC(N)C(=O)O; remark: listed apart in the source
Description: as §4

[10] = substrate: Nc1ccccc1C(=O)C[C@H](N)C(=O)O; remark: listed apart in the source
Description: Activity of human kynureninase H102W/S332G/N333T mutant

[11] = substrate: Nc1ccccc1C(=O)C[C@H](N)C(=O)O; remark: listed apart in the source
Description: (§5) Ratio of kcat to Km for human kynureninase N333T mutant

[12] = substrate: Nc1c(O)cccc1C(=O)CC(N)C(=O)O; remark: listed apart in the source
Description: as §5

[13] = substrate: Nc1ccccc1C(=O)C[C@H](N)C(=O)O; remark: listed apart in the source
Description: (§6) Activity of human kynureninase N333T mutant

[14] = substrate: Nc1c(O)cccc1C(=O)CC(N)C(=O)O; remark: listed apart in the source
Description: as §6

[15] = substrate: Nc1ccccc1C(=O)C[C@H](N)C(=O)O; remark: listed apart in the source
Description: (§7) Ratio of kcat to Km for human kynureninase S332G/N333T mutant

[16] = substrate: Nc1c(O)cccc1C(=O)CC(N)C(=O)O; remark: listed apart in the source
Description: as §7

[17] = substrate: Nc1ccccc1C(=O)C[C@H](N)C(=O)O; remark: listed apart in the source
Description: (§8) Activity of human kynureninase S332G/N333T mutant

[18] = substrate: Nc1c(O)cccc1C(=O)CC(N)C(=O)O; remark: listed apart in the source
Description: as §8

B1: Kynureninase (Homo sapiens), Q16719 (protein)
chain: MEPSSLELPADTVQRIAAELKCHPTDERVALHLDEEDKLRHFRECFYIPKIQDLPPVDLSLVNKDENAIYFLGNSLGLQPKMVKTYLEEELDKWAKIAAYGHEVGKRPWITGDESIVGLMKDIVGANEKEIALMNALTVNLHLLMLSFFKPTPKRYKILLEAKAFPSDHYAIESQLQLHGLNIEESMRMIKPREGEETLRIEDILEVIEKEGDSIAVILFSGVHFYTGQHFNIPAITKAGQAKGCYVGFDLAHAVGNVELYLHDWGVDFACWCSYKYLNAGAGGIAGAFIHEKHAHTIKPALVGWFGHELSTRFKMDNKLQLIPGVCGFRISNPPILLVCSLHASLEIFKQATMKALRKKSVLLTGYLEYLIKHNYGKDKAATKKPVVNIITPSHVEERGCQLTITFSVPNKDVFQELEKRGVVCDKRNPNGIRVAPVPLYNSFHDVYKFTNLLTSILDSAETKN
B1 gave a Km [1] of 495 µM, a kcat [1] of 0.23 s⁻¹ and a Km [2] of 28.3 µM. For the same protein, the kcat [2] was 3.5 s⁻¹, the kcat/Km [3] was 465 M⁻¹ s⁻¹ and the kcat/Km [4] was 1.23 ×10⁵ /M/s.

B2: Kynureninase (Homo sapiens), Q16719 H102W,N333T (protein)
chain: B1 chain with H102W, N333T
In the case of B2, the kcat/Km [5] is reported as 21.4 M⁻¹ s⁻¹, the kcat/Km [6] is reported as under 0.0165 M⁻¹ s⁻¹ and the Km [7] is reported as 327 µM. The kcat [7] was 0.007 s⁻¹.

B3: Kynureninase (Homo sapiens), Q16719 H102W,S332G,N333T (protein)
chain: B1 chain with H102W, S332G, N333T
For B3, the kcat/Km [8] was 126 M⁻¹ s⁻¹, the kcat/Km [9] was under 0.0165 M⁻¹ s⁻¹ and the Km [10] was 143 µM. It also gave a kcat [10] of 0.018 s⁻¹.

B4: Kynureninase (Homo sapiens), Q16719 N333T (protein)
chain: B1 chain with N333T
Work on B4 yielded a kcat/Km [11] of 52.1 M⁻¹ s⁻¹, a kcat/Km [12] of 19.8 M⁻¹ s⁻¹ and a Km [13] of 499 µM. The kcat [13] was 0.026 s⁻¹, the Km [14] was over 200 µM and the kcat [14] was under 3.9 ×10⁻³ /s.

B5: Kynureninase (Homo sapiens), Q16719 S332G,N333T (protein)
chain: B1 chain with S332G, N333T
Protein B5 has a kcat/Km [15] of 31.4 M⁻¹ s⁻¹, a kcat/Km [16] of 21.5 M⁻¹ s⁻¹ and a Km [17] of 540 µM. For the same protein, the kcat [17] was 0.017 s⁻¹, the Km [18] was over 510 µM and the kcat [18] was under 10.9 ×10⁻³ /s.
